Assay results from US20240166695A1, “PEPTIDIC POSITIVE ALLOSTERIC MODULATORS TARGETING TRPV1” (priority 2021, published 2024).
Where a chain is given by its changes, count along the chain named. Values belong to the binder of their own block, whether it stands above or below them.

Legend:
TRPV1-YFP [1] = assay: FRET ratio regression, design-CFP and TRPV1-YFP co-expressed in HEK293 cells; set-up: Apparent KD (FRET ratio fit): unit not given here
TRPV1-YFP [2] = assay: spectraFRET in live HEK293 cells, CFP on design, YFP on TRPV1
TRPV1-YFP [3] = assay: spectraFRET in live HEK293 cells, CFP on design, YFP on TRPV1; indistinguishable from CFP+YFP negative control

Apparent KD (FRET ratio fit) (TRPV1-YFP [1]): 120000 | FRET ratio max (TRPV1-YFP [1]): 3.86
B1: De1-CFP (designed binder, not shown: large carriers)
chain: NGYSSEDKLRIAKRHLLPKQIERNALKKGELFVSEFAILGIILFYTDEAGVRGLEREISKLCRKAVKQLLLDKSTTSSHASGFHLHDYLGVMR

FRET efficiency (TRPV1-YFP [2]): 7.4% | Apparent KD (FRET ratio fit) (TRPV1-YFP [1]): 75000 | FRET ratio max (TRPV1-YFP [1]): 2.35
B2: De2-CFP (designed binder, not shown: large carriers)
chain: B1 chain with S4W, L9E, F32K, S34W, L39F, D47W, S77R, H79W

Apparent KD (FRET ratio fit) (TRPV1-YFP [1]): 9.5e+09 | FRET efficiency (TRPV1-YFP [3]): 3.8%
B3: De4-CFP (designed binder, not shown: large carriers)
chain: LPESPRFAQKIWQQSVIGDYLARFKNDRVKALKAMEDSSNNSSMHRFAEFFAKAFEDLHRYLEEL
